Reference: patent US20180016354A1 (Merck KGaA, published 2018)

B1: Domain-exchanged one-armed anti-EGFR antibody (CH3-KiH domain-exchanged hu425 Fab on SEED AG heavy chain, with huFc_GA SEED) (antibody)
heavy: QVQLVQSGAEVKKPGASVKVSCKASGYTFTSHWMHWVRQAPGQGLEWIGEFNPSNGRTNYNEKFKSKATMTVDTSTNTAYMELSSLRSEDTAVYYCASRDYDYDGRYFDYWGQGTLVTVSSASTKGEPQVYTLPPSRDELTKNQVSLYCLVKGFYPSDIAVEWESNGQPENNYKTTPPVLDSDGSFFLYSKLTVDKSRWQQGNVFSCSVMHEALHNHYTQKSLSLSKSCDKTHTCPPCPAPELLGGPSVFLFPPKPKDTLMISRTPEVTCVVVDVSHEDPEVKFNWYVDGVEVHNAKTKPREEQYNSTYRVVSVLTVLHQDWLNGKEYKCKVSNKALPAPIEKTISKAKGQPFRPEVHLLPPSREEMTKNQVSLTCLARGFYPKDIAVEWESNGQPENNYKTTPSRQEPSQGTTTFAVTSKLTVDKSRWQQGNVFSCSVMHEALHNHYTQKTISLSPGK
chain: EPKSSDKTHTCPPCPAPELLGGPSVFLFPPKPKDTLMISRTPEVTCVVVDVSHEDPEVKFNWYVDGVEVHNAKTKPREEQYNSTYRVVSVLTVLHQDWLNGKEYKCKVSNKALPAPIEKTISKAKGQPREPQVYTLPPPSEELALNELVTLTCLVKGFYPSDIAVEWLQGSQELPREKYLTWAPVLDSDGSFFLYSILRVAAEDWKKGDTFSCSVMHEALHNHYTQKSLDRSPGK
light: DIQMTQSPSSLSASVGDRVTITCSASSSVTYMYWYQQKPGKAPKLLIYDTSNLASGVPSRFSGSGSGTDYTFTISSLQPEDIATYYCQQWSSHIFTFGQGTKVEIKRTVAEPQVYTLPPSRDELTKNQVSLTCLVKGFYPSDIAVEWESNGQPENNYKTTPPVLDSDGSFFLTSKLTVDKSRWQQGNVFSCSVMHEALHNHYTQKSLSLSGEC
notes: One Fab arm only (monovalent); also called One-armed CH3 domain-exchanged anti-EGFR antibody; one-armed domain-exchanged anti-EGFR antibody
B2: one-armed anti-EGFR SEED antibody with Charge pair CH3 domain-exchanged Fab, Variant 1 (antibody)
heavy: QVQLVQSGAEVKKPGASVKVSCKASGYTFTSHWMHWVRQAPGQGLEWIGEFNPSNGRTNYNEKFKSKATMTVDTSTNTAYMELSSLRSEDTAVYYCASRDYDYDGRYFDYWGQGTLVTVSSASTKGEPQVYTLPPSRKEMTKNQVSLTCLVKGFYPSDIAVEWESNGQPENNYKTTPPVLKSDGSFFLYSKLTVDKSRWQQGNVFSCSVMHEALHNHYTQKSLSLSKSCDKTHTCPPCPAPELLGGPSVFLFPPKPKDTLMISRTPEVTCVVVDVSHEDPEVKFNWYVDGVEVHNAKTKPREEQYNSTYRVVSVLTVLHQDWLNGKEYKCKVSNKALPAPIEKTISKAKGQPFRPEVHLLPPSREEMTKNQVSLTCLARGFYPKDIAVEWESNGQPENNYKTTPSRQEPSQGTTTFAVTSKLTVDKSRWQQGNVFSCSVMHEALHNHYTQKTISLSPGK
light: DIQMTQSPSSLSASVGDRVTITCSASSSVTYMYWYQQKPGKAPKLLIYDTSNLASGVPSRFSGSGSGTDYTFTISSLQPEDIATYYCQQWSSHIFTFGQGTKVEIKRTVAEPQVYTLPPSREEMTKNQVSLTCLVKGFYPSDIAVEWESNGQPENNYDTTPPVLDSDGSFFLYSDLTVDKSRWQQGNVFSCSVMHEALHNHYTQKSLSLSGEC
chain: EPKSSDKTHTCPPCPAPELLGGPSVFLFPPKPKDTLMISRTPEVTCVVVDVSHEDPEVKFNWYVDGVEVHNAKTKPREEQYNSTYRVVSVLTVLHQDWLNGKEYKCKVSNKALPAPIEKTISKAKGQPREPQVYTLPPPSEELALNELVTLTCLVKGFYPSDIAVEWLQGSQELPREKYLTWAPVLDSDGSFFLYSILRVAAEDWKKGDTFSCSVMHEALHNHYTQKSLDRSPGK
notes: hu425 Fv; one Fab arm only; also called Charge pair variant 1
B3: one-armed anti-EGFR SEED antibody with Azymetric CH3 domain-exchanged Fab, Variant 2 (antibody)
heavy: QVQLVQSGAEVKKPGASVKVSCKASGYTFTSHWMHWVRQAPGQGLEWIGEFNPSNGRTNYNEKFKSKATMTVDTSTNTAYMELSSLRSEDTAVYYCASRDYDYDGRYFDYWGQGTLVTVSSASTKGEPQVYVLPPSREEMTKNQVSLLCLVKGFYPSDIAVEWESNGQPENNYLTWPPVLDSDGSFFLYSKLTVDKSRWQQGNVFSCSVMHEALHNHYTQKSLSLSKSCDKTHTCPPCPAPELLGGPSVFLFPPKPKDTLMISRTPEVTCVVVDVSHEDPEVKFNWYVDGVEVHNAKTKPREEQYNSTYRVVSVLTVLHQDWLNGKEYKCKVSNKALPAPIEKTISKAKGQPFRPEVHLLPPSREEMTKNQVSLTCLARGFYPKDIAVEWESNGQPENNYKTTPSRQEPSQGTTTFAVTSKLTVDKSRWQQGNVFSCSVMHEALHNHYTQKTISLSPGK
light: DIQMTQSPSSLSASVGDRVTITCSASSSVTYMYWYQQKPGKAPKLLIYDTSNLASGVPSRFSGSGSGTDYTFTISSLQPEDIATYYCQQWSSHIFTFGQGTKVEIKRTVAEPQVYVYPPSREEMTKNQVSLTCLVKGFYPSDIAVEWESNGQPENNYKTTPPVLDSDGSFALVSKLTVDKSRWQQGNVFSCSVMHEALHNHYTQKSLSLSGEC
chain: EPKSSDKTHTCPPCPAPELLGGPSVFLFPPKPKDTLMISRTPEVTCVVVDVSHEDPEVKFNWYVDGVEVHNAKTKPREEQYNSTYRVVSVLTVLHQDWLNGKEYKCKVSNKALPAPIEKTISKAKGQPREPQVYTLPPPSEELALNELVTLTCLVKGFYPSDIAVEWLQGSQELPREKYLTWAPVLDSDGSFFLYSILRVAAEDWKKGDTFSCSVMHEALHNHYTQKSLDRSPGK
notes: hu425 Fv; one Fab arm only; also called hu425 CH3-Azymmetric variant 2
B4: one-armed anti-EGFR SEED antibody with Azymetric CH3 domain-exchanged Fab, Variant 1 (antibody)
heavy: QVQLVQSGAEVKKPGASVKVSCKASGYTFTSHWMHWVRQAPGQGLEWIGEFNPSNGRTNYNEKFKSKATMTVDTSTNTAYMELSSLRSEDTAVYYCASRDYDYDGRYFDYWGQGTLVTVSSASTKGEPQVYVYPPSREEMTKNQVSLTCLVKGFYPSDIAVEWESNGQPENNYKTTPPVLDSDGSFALVSKLTVDKSRWQQGNVFSCSVMHEALHNHYTQKSLSLSKSCDKTHTCPPCPAPELLGGPSVFLFPPKPKDTLMISRTPEVTCVVVDVSHEDPEVKFNWYVDGVEVHNAKTKPREEQYNSTYRVVSVLTVLHQDWLNGKEYKCKVSNKALPAPIEKTISKAKGQPFRPEVHLLPPSREEMTKNQVSLTCLARGFYPKDIAVEWESNGQPENNYKTTPSRQEPSQGTTTFAVTSKLTVDKSRWQQGNVFSCSVMHEALHNHYTQKTISLSPGK
light: DIQMTQSPSSLSASVGDRVTITCSASSSVTYMYWYQQKPGKAPKLLIYDTSNLASGVPSRFSGSGSGTDYTFTISSLQPEDIATYYCQQWSSHIFTFGQGTKVEIKRTVAEPQVYVLPPSREEMTKNQVSLLCLVKGFYPSDIAVEWESNGQPENNYLTWPPVLDSDGSFFLYSKLTVDKSRWQQGNVFSCSVMHEALHNHYTQKSLSLSGEC
chain: EPKSSDKTHTCPPCPAPELLGGPSVFLFPPKPKDTLMISRTPEVTCVVVDVSHEDPEVKFNWYVDGVEVHNAKTKPREEQYNSTYRVVSVLTVLHQDWLNGKEYKCKVSNKALPAPIEKTISKAKGQPREPQVYTLPPPSEELALNELVTLTCLVKGFYPSDIAVEWLQGSQELPREKYLTWAPVLDSDGSFFLYSILRVAAEDWKKGDTFSCSVMHEALHNHYTQKSLDRSPGK
notes: hu425 Fv; one Fab arm only; also called hu425 CH3-Azymmetric variant 1
B5: one-armed anti-EGFR SEED antibody with KiH2 CH3 domain-exchanged Fab, Variant 1 (antibody)
heavy: QVQLVQSGAEVKKPGASVKVSCKASGYTFTSHWMHWVRQAPGQGLEWIGEFNPSNGRTNYNEKFKSKATMTVDTSTNTAYMELSSLRSEDTAVYYCASRDYDYDGRYFDYWGQGTLVTVSSASTKGEPQVYTLPPSRDELTKNQVSLWCLVKGFYPSDIAVEWESNGQPENNYKTTPPVLDSDGSFFLYSKLTVDKSRWQQGNVFSCSVMHEALHNHYTQKSLSLSKSCDKTHTCPPCPAPELLGGPSVFLFPPKPKDTLMISRTPEVTCVVVDVSHEDPEVKFNWYVDGVEVHNAKTKPREEQYNSTYRVVSVLTVLHQDWLNGKEYKCKVSNKALPAPIEKTISKAKGQPFRPEVHLLPPSREEMTKNQVSLTCLARGFYPKDIAVEWESNGQPENNYKTTPSRQEPSQGTTTFAVTSKLTVDKSRWQQGNVFSCSVMHEALHNHYTQKTISLSPGK
light: DIQMTQSPSSLSASVGDRVTITCSASSSVTYMYWYQQKPGKAPKLLIYDTSNLASGVPSRFSGSGSGTDYTFTISSLQPEDIATYYCQQWSSHIFTFGQGTKVEIKRTVAEPQVYTLPPSRDELTKNQVSLSCAVKGFYPSDIAVEWESNGQPENNYKTTPPVLDSDGSFFLVSKLTVDKSRWQQGNVFSCSVMHEALHNHYTQKSLSLSGEC
chain: EPKSSDKTHTCPPCPAPELLGGPSVFLFPPKPKDTLMISRTPEVTCVVVDVSHEDPEVKFNWYVDGVEVHNAKTKPREEQYNSTYRVVSVLTVLHQDWLNGKEYKCKVSNKALPAPIEKTISKAKGQPREPQVYTLPPPSEELALNELVTLTCLVKGFYPSDIAVEWLQGSQELPREKYLTWAPVLDSDGSFFLYSILRVAAEDWKKGDTFSCSVMHEALHNHYTQKSLDRSPGK
notes: hu425 Fv; one Fab arm only; also called KiH2 variant 1
B6: one-armed anti-EGFR SEED antibody with Charge pair CH3 domain-exchanged Fab, Variant 2 (antibody)
heavy: QVQLVQSGAEVKKPGASVKVSCKASGYTFTSHWMHWVRQAPGQGLEWIGEFNPSNGRTNYNEKFKSKATMTVDTSTNTAYMELSSLRSEDTAVYYCASRDYDYDGRYFDYWGQGTLVTVSSASTKGEPQVYTLPPSREEMTKNQVSLTCLVKGFYPSDIAVEWESNGQPENNYDTTPPVLDSDGSFFLYSDLTVDKSRWQQGNVFSCSVMHEALHNHYTQKSLSLSKSCDKTHTCPPCPAPELLGGPSVFLFPPKPKDTLMISRTPEVTCVVVDVSHEDPEVKFNWYVDGVEVHNAKTKPREEQYNSTYRVVSVLTVLHQDWLNGKEYKCKVSNKALPAPIEKTISKAKGQPFRPEVHLLPPSREEMTKNQVSLTCLARGFYPKDIAVEWESNGQPENNYKTTPSRQEPSQGTTTFAVTSKLTVDKSRWQQGNVFSCSVMHEALHNHYTQKTISLSPGK
light: DIQMTQSPSSLSASVGDRVTITCSASSSVTYMYWYQQKPGKAPKLLIYDTSNLASGVPSRFSGSGSGTDYTFTISSLQPEDIATYYCQQWSSHIFTFGQGTKVEIKRTVAEPQVYTLPPSRKEMTKNQVSLTCLVKGFYPSDIAVEWESNGQPENNYKTTPPVLKSDGSFFLYSKLTVDKSRWQQGNVFSCSVMHEALHNHYTQKSLSLSGEC
chain: EPKSSDKTHTCPPCPAPELLGGPSVFLFPPKPKDTLMISRTPEVTCVVVDVSHEDPEVKFNWYVDGVEVHNAKTKPREEQYNSTYRVVSVLTVLHQDWLNGKEYKCKVSNKALPAPIEKTISKAKGQPREPQVYTLPPPSEELALNELVTLTCLVKGFYPSDIAVEWLQGSQELPREKYLTWAPVLDSDGSFFLYSILRVAAEDWKKGDTFSCSVMHEALHNHYTQKSLDRSPGK
notes: hu425 Fv; one Fab arm only; also called Charge pair variant 2

molecular target: T1, EGFR (on EGFR-expressing A431 cells) (UniProt P00533 25-1210, limits assumed); assay: flow cytometry on A431 cells
T1 construct: whole, on cells; A431 is a human cell line; also called EGFR-positive cells; EGFR-overexpressing A431 cells

Binding result, binds:
B1, B2, B3, B4, B5, B6
